# Test results from US20210301025A1 (published 2021).
# Numbering of substitutions follows the chain as printed.
# B1: P114AR5P74-A5 (designed binder, not shown: small tags and cut ends)
# chain: LPAPKNLVVSRVTEDSARLSWTAPDAAFDSFWIRYDEVVVGGEAIVLTVPGSERSYDLTGLKPGTEYYVNILGVKGGSISVPLSAIFTT
# B2: P54AR4-73 (designed binder, not shown: small tags and cut ends)
# chain: LPAPKNLVVSEVTEDSLRLSWTWPYADLDSFLIQYQESEKVGEAINLTVPGSERSYDLTGLKPGTEYTVSIYGVHNVYKDTNMRGLPLSAEFTT
# notes: also called P54AR4-37
# B3: P54AR4-48 (designed binder, not shown: small tags and cut ends)
# chain: B2 chain with T22D, W23D, Y25R, A26G, D27F, L28Y, D29E
# B4: P53A1R5-17v2 (designed binder)
# chain: B2 chain with L17A, T22A, W23D, Y25H, A26G, D27F, L28Y, N46V, E91I
# B5: P54AR4-83 (designed binder, not shown: small tags and cut ends)
# chain: B2 chain with T22D, W23D, Y25W, D27F, L28Y, D29E
# B6: ECB147v3-PEG24 (designed binder)
# chain: MLPAPKNLVVSEVTEDSARLSWDDPWAFYESFLIQYQESEKVGEAIVLTVPGSERSYDLTGLCPGTEYTVSIYGVHNVYKDTNMRGLPLSAIFTTAPCPAPAPAPLPAPKNLVVSRVTEDSARLSWTAPDAAFDSFWIRYFEFLGSGEAIVLTVPGSERSYDLTGLCPGTEYVVNIMSVKGGSISPPLSAIFTTAPCPAPAPAPLAEAKVLANRELDKYGVSDYYKNLINNAKTVEGVKALLDEILAALP
# modifications: PEG24-maleimide on the engineered cysteines
# B7: ECB147v6-PEG24 (designed binder)
# chain: B6 chain with C98A, C167K, C197A
# modifications: PEG24-maleimide on the engineered cysteine
# B8: ECB147v5-PEG24 (designed binder)
# chain: B6 chain with C98A, C197A
# modifications: PEG24-maleimide on the engineered cysteines
# B9: ECB147v7-PEG24 (designed binder)
# chain: B6 chain with C63K, C167K
# modifications: PEG24-maleimide on the engineered cysteines
# What was measured:
# [1] = target: T1, human c-Met on cells (NCI-H441, NCI-H292, U87-MG) (human, UniProt P08581 25-1390); test: cell-based or functional assay
# [2] = target: T1, human c-Met on cells (NCI-H441, …); test: cell-based or functional assay; remark: listed apart in the source
# [3] = target: T2, recombinant c-Met extracellular domain (human, UniProt P08581 16-932); test: SPR kinetic analysis as in Example 2
# T2 construct: Construct used for SPR is not described further (may be the Fc chimera, as the protocol captures on anti-human Fc)
# [4] = target: T1, human c-Met on cells (NCI-H441, …); test: NCI-H441 cell binding, anti-His fluorescence
# Protocol: Purified FN3 domains (50 μL/well; 0 to 1000 nM) were added to the cells for 1 hour at 4° C. in duplicate plates. Supernatant was removed and cells were washed three times with FACS stain buffer (150 μL/well, BD Biosciences, cat #554657). Cells were incubated with biotinylated-anti HIS antibody (diluted 1:160 in FACS stain buffer, 50 μL/well, R&D Systems, cat # BAM050) for 30 minutes at 4° C. Cells were washed three times with FACS stain buffer (150 μL/well), after which wells were incubated with anti mouse IgG1-Alexa 488 conjugated antibody (diluted 1:80 in FACS stain buffer, 50 μL/well, Life Technologies, cat # A21121) for 30 minutes at 4° C. Cells were washed three times with FACS stain buffer (150 μL/well) and left in FACS stain buffer (50 μL/well). Total fluorescence was determined using an Acumen eX3 reader. Data were plotted as raw fluorescence signal against the logarithm of the FN3 domain molar concentration and fitted to a sigmoidal dose-response curve with variable slope using GraphPad Prism 4 (GraphPad Software) to calculate EC₅₀ values.
# [5] = target: T3, Recombinant human c-Met Fc chimera (human, UniProt P08581 16-932); test: competition with biotinylated HGF on plate-coated c-Met-Fc
# T3 construct: whole c-Met entry named; also called c-Met-Fc fusion protein
# [6] = target: T4, human EGFR on cells (A431, NCI-H292, NCI-H322, NCI-H441) (human, UniProt P00533 25-1210); test: cell-based or functional assay
# [7] = target: T4, human EGFR on cells (A431, NCI-H292, …); test: A431 cell competition with biotinylated EGF
# Protocol: A431 cells were plated at 5,000/well in opaque black 96-well plates and allowed to attach overnight at 37° C., in a humidified 5% CO₂ atmosphere. […] Cells were washed 3 times with 150 μL/well of FACS stain buffer. Cells were incubated with 50 μL/well of streptavidin-phycoerythrin conjugate (Invitrogen) diluted 1:100 in FACS stain buffer for 20 minutes at room temperature. Cells were washed 3 times with 150 μL/well of FACS stain buffer, after which wells were filled with 100 μL of FACS stain buffer and read for fluorescence at 600 nm using an Acumen eX3 reader. Data were plotted as the raw fluorescence signal against the logarithm of FN3 domain molar concentration and fitted to a sigmoidal dose-response curve with variable slope using GraphPad Prism 4 (GraphPad Software) to calculate IC₅₀ values.
# [8] = target: T4, human EGFR on cells (A431, NCI-H292, …); test: A431 cell binding, anti-His-Alexa488 fluorescence
# Protocol: A431 cells were plated at 5,000/well in opaque black 96-well plates and allowed to attach overnight at 37° C., in a humidified 5% CO₂ atmosphere. […] Supernatant was removed and cells were washed 3 times with 150 μL/well of FACS stain buffer. Cells were incubated with 50 μL/well of anti-penta His-Alexa488 antibody conjugate (Qiagen) diluted 1:100 in FACS stain buffer for 20 minutes at room temperature. Cells were washed 3 times with 150 μL/well of FACS stain buffer, after which wells were filled with 100 μL of FACS stain buffer and read for fluorescence at 488 nm using an Acumen eX3 reader. Data were plotted as raw fluorescence signal against the logarithm of the FN3 domain molar concentration and fitted to a sigmoidal dose-response curve with variable slope using GraphPad Prism 4 (GraphPad Software) to calculate EC₅₀ values.
# [9] = target: T5, recombinant human extracellular domain of EGFR fused to an IgG1 Fc (human, UniProt P00533 25-645); test: SPR (ProteOn), EGFR-Fc captured on anti-human Fc IgG
# T5 construct: Bought (R&D Systems); captured on anti-human Fc IgG for SPR; also called EGFR-Fc
# Protocol: Select EGFR-binding FN3 domains were screened to identify those with slow off-rates (koff) in binding to EGFR-Fc on a ProteOn XPR-36 instrument (Bio-Rad) to facilitate selection of high affinity binders. Goat anti-human Fc IgG (R&D systems), at a concentration of 5 μg/mL, was directly immobilized via amine coupling (at pH 5.0) on all 6 ligand channels in horizontal orientation on the chip with a flow rate of 30 μL/min in PBS containing 0.005% Tween-20. The immobilization densities averaged about 1500 Response Units (RU) with less than 5% variation among different channels. EGFR-Fc was captured on the anti-human Fc IgG surface to a density around 600 RU in vertical ligand orientation. All tested FN3 domains were normalized to a concentration of 1 μM and tested for their binding in horizontal orientation. All 6 analyte channels were used for the FN3 domains to maximize screening throughput. The dissociation phase was monitored for 10 minutes at a flow rate of 100 μL/min. The inter-spot binding signals were used as references to monitor non-specific binding between analytes and the immobilized IgG surface, and were subtracted from all binding responses. The processed binding data were locally fit to a 1:1 simple Langmuir binding model to extract the koff for each FN3 domain binding to captured EGFR-Fc.
# Binding affinity of selected EGFR-binding FN3 domains to recombinant EGFR extracellular domain was further characterized by surface Plasmon resonance methods using a Proteon Instrument (BioRad). The assay set-up (chip preparation, EGFR-Fc capture) was similar to that described above for off-rate analysis. Selected EGFR binding FN3 domains were tested at 1 μM concentration in 3-fold dilution series in the horizontal orientation. A buffer sample was also injected to monitor the baseline stability.
# [10] = target: EGFR (form used in the assay not stated) (human, UniProt P00533 25-645, limits assumed); test: affinity quoted in text, assay not stated
# [11] = target: T4, human EGFR on cells (A431, NCI-H292, …); test: cell-based or functional assay; remark: listed apart in the source
# [12] = target: T1, human c-Met on cells (NCI-H441, …); test: cell-based or functional assay; remark: listed apart in the source
Binder,Phospho-EGFR IC50 (A431 cells) [6] [nM],IC50 [7] [nM],EC50 [8] [nM],Kd [9] [nM],"IC50 of inhibition of EGF-stimulated EGFR phosphorylation, NCI-H292 cells [11] [nM]","IC50 of inhibition of HGF-stimulated c-Met phosphorylation, NCI-H292 cells [12] [nM]",also measured
B1,,,,,,,"IC50 of inhibition of c-Met phosphorylation, NCI-H292 cells [1]: 610 nM; Inhibition of proliferation of U87-MG cells IC50 [2]: 464 nM; pMet inhibition in H441 cells IC50 [2]: 1.08 µM; Kd [3]: 10.1 nM; EC50 [4]: 18.7 nM; IC50 [5]: 5.2 nM"
B2,141,4.6,9.4,0.197,,,NCI-H292 Growth IC50 [6]: 83 nM; NCI-H322 Growth IC50 [6]: 73 nM
B3,170,9.8,12,7.78,,,
B4,,,,,,,Kd [10]: 1.9 nM
B5,18,1.8,2.2,0.255,,,NCI-H292 Growth IC50 [6]: 5.9 nM; NCI-H322 Growth IC50 [6]: 9.2 nM
B6,,,,,1.6,0.5,
B7,,,,,1.4,0.4,
B8,,,,,0.9,0.4,
B9,,,,,1.4,0.5,
